These results are taken from paper PMC6411343 (International Journal of Oncology, 2019).

To fix the notation:
B1: [^125I]I-HPEM-G3-GGGC (DARPin G3-GGGC, site-specifically labelled with [^125I]I-iodo-[(4-hydroxyphenyl)ethyl]maleimide) (designed binder)
chain: DLGKKLLEAARAGQDDEVRILMANGADVNAKDEYGLTPLYLATAHGHLEIVEVLLKNGADVNAVDAIGFTPLHLAAFIGHLEIAEVLLKHGADVNAQDKFGKTAFDISIGNGNEDLAEILQKLNGGGGC
modifications: [^125I]I-HPEM ([^125I]iodo-[(4-hydroxyphenyl)ethyl]maleimide) on the C-terminal cysteine (maleimide-cysteine coupling)
B2: [^125I]I-G3-GGGC-IAA (DARPin G3-GGGC, directly radioiodinated, terminal cysteine capped with iodoacetamide) (designed binder)
chain: B1 chain
modifications: iodine-125 by direct iodination; terminal cysteine capped by alkylation with iodoacetamide (IAA)
B3: [^125I]I-G3-H6 (DARPin G3-H6, directly radioiodinated with iodine-125) (designed binder)
chain: MDLGKKLLEAARAGQDDEVRILMANGADVNAKDEYGLTPLYLATAHGHLEIVEVLLKNGADVNAVDAIGFTPLHLAAFIGHLEIAEVLLKHGADVNAQDKFGKTAFDISIGNGNEDLAEILQKLNGS
modifications: iodine-125 on tyrosines (direct chloramine-T radioiodination, random attachment; number and position not controlled)

This assay deals with human epidermal growth factor receptor 2 (HER2) (human (endogenous in SKOV3, BT474, …, UniProt P04626 23-1255)). Briefly: radioligand binding.
For B1, the “KD1 (high affinity interaction, 1:2 interaction model)” value is 99 pM and the “KD2 (low affinity interaction, 1:2 interaction model)” value turned out to be 3.5 nM.
In the case of B2, the “KD1 (high affinity interaction, 1:2 interaction model)” value is 146 pM and the “KD2 (low affinity interaction, 1:2 interaction model)” value is 1.5 nM.
The matching figures for B3: 163 pM and 3.9 nM.
